Assay results reported in the domain aggregation screens of Martell et al. (2025).

Assay: soluble fraction after stress (log2 fold change); higher = more stays soluble; pooled small domains, quantitative proteomics
Details: stress: 75 degC
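Note: 20 min heating vs room temperature control held 20 min.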

Sequence | soluble fraction (log2)
HMTRHSSVDFAGYILRNKENEPIFGFGKHKGKTVVEVLQREQGYFGWLMEADFPLYTKKVLTAIRLNTLNS | -0.261
HMTRLDLQNAFRVLPPEIQPAAVLFFLQERKQREIAKILGIGLPLVKYRIRKARELLAQFLRKEA | -0.225
HMTRNEFLTALRGRLSALPKEEQDAALKYYEEYFDEAESEEDAARQLGSPDSIAEKILADYA | 0.418
HMTRQNTAVQQSDMAHHKASELTEGMSIVHSHFGRGTIISIETADDPRVTVDFSSEGRKTMLLRFAKFAIE | -0.941
HMTRQRQLIYNIIQRADDHPTAEMIYARAKAEMPSIAFGTVYRNLKLMVDAGEILHIPVAGEPDRYDK | -1.96
HMTRVANIPYSEFLKLVETDKINDVSMVGKTISGHLDDGTKFSTYTPPNDPNLIDKLSKHNVIIKAGPE | -0.000643
HMTRVDKLQTWLSLPREQRDWDEGALMLLQLTGNKIMYRNLSVNPEGKANFIEGKLQQYLEFRLA | -1.25
HMTSAHEKAFDLFDGGKLSEKALLIAVGAERSGFELAGDLRLRTLTAFEDGRLSEDAMIKLL | -0.299
HMTSAIAEGTVIRLTQSTNIRESMSEDAPKVATAFSGEKVTVIMSYAEGWTKVTYGDKTGYIKTELL | -1.1
HMTSAPHHIAAVLRDAIYRGVLEEGGPLHQARIAQSLGVSPIPLREALRLLETEGLVEFRGYRGAFVT | -0.557
HMTSDADSLRDKTGYVAEQVTSKGGKVNLYDGGFDSLYSARSTGETISTGTEIRVVDPGGGNMLVVEPV | 0.948
HMTSDYEPSEKDEKAVIGIAFLRNTDVYDVDIDKAEAIKALKANNDIYQKFVKFFPFVKLPSLYDDFQ | 0.251
HMTSGPAWPALSAQQRSVLAPLQRDWHTIDAARKAKWLEVAARFPSMPAEERQRVQERMAEWA | -0.0911
HMTSKIIIGDSYSKINKLLGEPENMKKRKFLDNEYLMVLYSINKKNYRLYFKDNILFELEDI | -0.991
HMTSLQDLLEELRVIRETLTGSQVLSDMQLFSQLRNLGDIKAALTRMQDNPAAARMVGEVDKLLETMFAS | -1.97
HMTSLSYINDLVTGATAQGLYRIVVPNQFMDDNMANVLRRTYGYQVQSRTSLMGTFDDYIISWAPPM | -2.9
HMTSMTHLGRHPDSEISLDDISVSRRHAEIERQGHEYVLRDSGSLNGTYVNQQRVDSVVLQQGDEIL | 0.48
HMTSPLQIHPNPATKHIELGLESPEVVLIKDINGKTVYQELVAPNQYIDIEHLKNGIYFIESKNKFGKLIK | 0.0829
HMTSPNPLIRSTTPGLETNKKGGIIVDENEMSTRENVFAGGDAVTGAATVILAMGAGKKAAAAIDAKLQN | 0.461
HMTSPQGIERFLASGVIEGVGKAMAARIVAVFGGQTLEIIEKQPHRLREVRGIGVKTAEKIHASYQEKA | -0.841
HMTSPVEDLLDKAIQLYREENFEEAIAKWEEVLALDPSKLEAKFNIEIAQDRIKEKQIQEDLKSS | 0.341
HMTSQVTVHVVGAVEKPGVVTLDAPSRVQDALEAAGGALPEAELSGVNLARELFDGEQIVVPAQGEDV | 0.342
HMTSSVIIPKLIGKTEEEAKVALAGLNVQVLYETHGDQANGIVIKQSFEEGTKVIKGVSIVITVNKVS | -1.91
HMTSTEQEILIEHMVDRLPALRKKYGISQTELGEKIGLSRQTISAIERKTTPLTWTTMLAILMFFT | -1.82
HMTSTSVKYVNSSSGLNVRKGPSTSYDKVTTLVNGTKVTVISTNNGWSKITSGSITGYVSSQYLSSSS | -1.27
HMTSVAYVIDRINKIQNVYSELEALGLKDEFEKILSNIEDLSKKDIREIKTLLKTKGVIKNLDDLNVKL | 0.762

Sequence | soluble fraction (log2)
HMTSVQDLLRNGDRVGYQNGSTVKYWLEEMGFHKKDLLGYVTVEEYAEALQRGSGNGGVSAIVD | -0.811
HMTTARERVYKTLQQWIVNGTLLPEERLNDVELARYFSVSRTPVREALQMLAEQKLVKMVPSSGTFVA | -1.44
HMTTELDTTAITPIIQKVLKANPDVVAKYKAGQQQVIGFLMGQVMRELSTKPNPKELQSLIVAQLQQA | -0.0252
HMTTGEIIQRERTRLGLSQEKLAEQVGVSRQAVSKWELGDAVPDTDKLVPLARTLGISVDTLLD | 0.12
HMTTGGAEELGRTERKIVEQVGRGLSNREIAQVLGLSEGTVRNYLSTILGKLGLRDRTQLAIWSVQTGFAA | 0.21
HMTTHERHEIIELLRQVGDPMRPKEISEALGKPSGAIRFLLSKLTEEGAIKKTGYGQYTYIP | -0.784
HMTTLTPIGKMKGEIDGDFEAFYLAVDKDGQVYLNRDPDYSENRYEKSRGWELVTREQLAVYEKELHFIP | -0.707
HMTTMYKSDVKGINYDVKAKSWFLRITFNGNQIPIGHFKTEEDAINVKQQLIPYIESKDYTSILAVKAKYS | -1.9
HMTTPDIIVPDVKGMTVAEAQKALEEKGFKVKLEEMTQEGAVPGDVIRIDPVAGTKRKEGAKITLLIARG | -0.0237
HMTTQTGTVKWFNEGKGFGFIAPDDGGKDLFAHFKEIQGTGFKTLAENQRVEFEVTQGQKGPQASKI | -0.0331
HMTTQTTKYVNTTAGLNVRTGPSTSYAKIVTLSYGQSVNVLSTSNGWSKINYNGSTGYVSSQYLQSTKPS | -2.28
HMTTSNPMNVTSAEAAFDNGTDRLNAFISGRTTSEERSTYFPLFVRETKEDFLRAVGRFNEYIANHG | 0.055
HMTTTAGTAVVQTGNSGKLNLREQAYSNAGILGRYSNGTIVTVLQKGSAWSYVEVQGQKGYMMSKFLRFT | -2.75
HMTTTFGWENLVGEKGIAATDLHPSGWVTVKDQRVFVVSEGTFIEEGKEVEIMNVDGNRIVVREFKN | 0.216
HMTTTPTSQMVTELRSRGWTLRALAQRLGVGHASINRWANGVTPDRDLVAALRALVASGEVP | -0.833
HMTTTYEINDEMLKPLILEIFNKSKQRFGSTKIAPVLKREGYTASIAKVKTLMNELGIKPVNA | -1.07
HMTTTYTVPKVTGMTLEEAREDPDVVGRFTIVEGEKVTSDTVPVGQIVSQEPAAHRQVGEDGLTITVNIS | 0.634
HMTTVKDRVYEILKREIVLGKLKPGEPINIAVLSTKLNISSAPLREALNMLSRDGLVTLNPRKHAAVSE | -1.31
HMTTVRLNATVPPELALQRLDRVARELFPEYSRNRLQQWIRSGELLVNGSPSGVRDKVPLGAELAVAANLE | -0.657
HMTTVSINTTGIITASTIRASSALYPPLYTTVQRDAGTFSAGAIIFNSTTSKLEFYDGTTWQSLPG | -0.339
HMTTVTVGSKVRVKAGATFSDGAKPFAEVYNTVYDVQLLSHNGKEARIGIGDQWTGWIYISDLYLANQPAP | -1.84
HMTVEMYIGKTANVLETVTENNGRIAIFGEEWQAKSLNGETIEKGAQAKIVKNDSIIMYVVPI | -0.443
HMTVGENTYELIKKDIIFGVLPPLKKLKLQELKKIYNASVSTLREILSRLTGDGFVFSEEQKGFYVSPV | 0.0263
HMTVKEVGYDTFLTMLDKKEIKQVQVEDNQIIFSDNADPVNYYKTGVFNDPDLVNRLQDAGVEFG | 1.01
HMTVKEYNRAVDEYSDAVWRFIRGNLRDEDRANDIVQDSFEKLWMHVTEIDYSVAKSWLFSTAYNNMIDI | -0.707
HMTVKKLTINEDNSGRRIDNYLLSIFNSLPRSKIYNIIRKGEVRVNSSRIKPNYRLEQGDLVRIPPNLEFT | 0.154

Sequence | soluble fraction (log2)
HMTVKRNLVQEILRLKFRHPENFMPNRAFYQEVGINQMRWWDIFYGRKNINQEEYIALSKYF | -0.353
HMTVLPTEQDAKALVGLGEEEAAKIVEGNGWTYRIGSRDGEQFMLTEDFVTSRLTLGIEKAIVMTATI | -0.906
HMTVLSKEEFVAIEQRLLQLLGTAPVDNKILLQQLSGIKKEKAWKVLSFLQAENKIGMDATGRVYL | -0.974
HMTVPDVKGMGARDAVFLLETLGFKVRINGIGQVYEQSIDPGKSYSKGEFISLRL | -0.699
HMTVPNVVGQRILAAQDILKNLGLKVLVDTNLPNSQWGLRNVKSTNPGAGAVVRVGDTVTLIAR | -0.441
HMTVPTEVALELMHATALEDNEQRILYIASFKEKHREHLHATIEVDGQEVTLARYADLVATGAYL | -2.56
HMTVSADIIQKIIKTSTTDENIITIDSISNSISKLALSKITAEDIIEILEASSLVLRNSNGSWTVL | -1.7
HMTVSKLKVINYTIRNGDSLWTISRKFNVTVDKVKEWNGLSDRTLLQPGQKLTLYVDPTIQISH | -1.82
HMTVSLLQTRQRLQALADLGHYKGDLGAAWGPDAIEALKKAQATLGVTVDGKWGPQTEDAIQVALKVQ | -0.237
HMTVTISPGYEGRLLRSYLKNTLSLSTSALARLKTREDGITVNGVRVTVRYVLHAGDLLQLAVD | -0.579
HMTVVHRQVHLQPDQGAFRAALYSHKAVLSEQTDDQGAINLEIRLPESDFLRLLNSSGLKLQDLVP | -0.427
HMTVVSVDDQASASSEAIRTKVAGDSAARMSVDAGGKITWGAGSASGDVTLYRSAANTLKTDDTLVAT | 0.16
HMTYADTRDLLIRRGMELLTEQGIAATSIERVLQSTGIPKGSFYHYFATKHDFTLAVMDAYHHY | -0.157
HMTYAQQIGARIAFLRRLKGLTLAELAERVNKHKSTISKYESGQIIIDIESLKEVADALGVDVAQIVE | -1.26
HMTYFDIAPELLTVYKEINDIPRDINQIVRKTGLSINEVSYKTMILQLEDKIVELPGQRFIRNS | -2.46
HMTYKHLTIDEMKRFLSTREDSQSALVQFARVENVVGNRKGKYAVIKKWFLKNYKEEYNAFLS | 0.0231
HMTYPGSIALVNPKHEAFVQHYVATSGSRGQAAKLAGVTTTTARNLLQDVEATARIRYLNAQQFQ | -0.12
HMTYTGTVTGVDEGGLRVRSSTSTENTSNVITKVYTGDTFDVLDTVYNGSAKWYKIGFTYNGTYTYGYVSA | -1.51
HMTYVSVSNYIGTNVDKAKGELESQGLVVLLEEQKTEDKSQDGMVLKQTIEGGTKVSSGSRITLIYGRYT | -0.0441
HMVADEGELLAIAREVVAANPKVFEDWKAGKQSAAQWFVGQIMKRTRGRANPQLALKLVTQALEEHAR | 0.0384
HMVAEKSKIEMAIDSINKLAKELADSGVAKKTISDIIKSVSGSANYNKITDFEVATDVYKELVALKNKEDT | 0.223
HMVAESGLPPAFRSTWRHIMQTRGAQLDVLAMRTGTDAASLQKQLHAMELGGWVRRMPGGWYVPLK | -1.78
HMVAFYATPKERGIYDDAETYREGDIVSIADGSRWIYVNPTATAGNDPADGSVYWERMSGAATGP | 0.116
HMVAGHLQEKKGYFYMVLTYRDHEGKRKSKWLPTGLTIKGNKKRAQDLLQDARKNFVPDIPT | -2.37
HMVAGHLQEKNGYFYIVLNYTNHEGKRKSKWITTGLTVKGNKKRAQDLLQEARKTFVPDIPT | -2.88
